Tests used:
Experiment in all cases: SPR; antibody captured in bivalent format
[1] = target: T1, His-tagged rhesus CD180 from Creative Biomart (CD180-1598R) (rhesus, UniProt F7GX75 24-626)
T1 chain: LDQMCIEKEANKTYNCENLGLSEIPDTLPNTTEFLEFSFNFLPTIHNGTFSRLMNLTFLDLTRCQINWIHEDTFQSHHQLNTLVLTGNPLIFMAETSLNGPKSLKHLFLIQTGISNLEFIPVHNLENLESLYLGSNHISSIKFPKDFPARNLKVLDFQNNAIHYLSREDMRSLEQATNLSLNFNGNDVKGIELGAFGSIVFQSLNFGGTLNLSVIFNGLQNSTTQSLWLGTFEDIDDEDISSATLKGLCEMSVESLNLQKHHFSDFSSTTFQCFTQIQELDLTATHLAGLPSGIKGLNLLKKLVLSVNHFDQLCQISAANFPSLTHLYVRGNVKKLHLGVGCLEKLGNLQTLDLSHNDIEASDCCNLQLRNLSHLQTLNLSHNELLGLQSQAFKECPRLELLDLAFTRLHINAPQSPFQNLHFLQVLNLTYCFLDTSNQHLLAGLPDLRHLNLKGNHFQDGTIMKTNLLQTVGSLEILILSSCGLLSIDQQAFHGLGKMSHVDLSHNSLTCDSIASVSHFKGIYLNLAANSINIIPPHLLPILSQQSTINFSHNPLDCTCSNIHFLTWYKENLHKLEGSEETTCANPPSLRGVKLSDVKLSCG

[2] = target: T2, human CD180 extracellular domain (ECD) HIS-tagged protein (Creative Biomart, CD180-3900H) (human, UniProt Q99467 24-626)
T2 chain: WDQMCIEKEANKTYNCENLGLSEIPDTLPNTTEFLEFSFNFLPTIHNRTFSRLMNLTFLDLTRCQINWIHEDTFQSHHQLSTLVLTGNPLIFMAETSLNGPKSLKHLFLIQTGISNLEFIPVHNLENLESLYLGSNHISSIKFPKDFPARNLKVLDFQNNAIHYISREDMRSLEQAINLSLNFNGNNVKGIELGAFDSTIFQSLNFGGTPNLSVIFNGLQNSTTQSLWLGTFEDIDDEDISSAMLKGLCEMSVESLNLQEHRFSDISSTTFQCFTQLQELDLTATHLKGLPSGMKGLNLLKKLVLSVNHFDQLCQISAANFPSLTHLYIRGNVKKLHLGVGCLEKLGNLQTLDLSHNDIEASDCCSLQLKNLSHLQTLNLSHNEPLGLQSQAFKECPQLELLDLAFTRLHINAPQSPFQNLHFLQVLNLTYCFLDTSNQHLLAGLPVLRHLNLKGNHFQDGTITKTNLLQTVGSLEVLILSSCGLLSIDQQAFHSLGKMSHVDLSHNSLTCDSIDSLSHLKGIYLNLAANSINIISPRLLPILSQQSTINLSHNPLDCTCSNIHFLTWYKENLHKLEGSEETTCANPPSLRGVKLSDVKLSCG

[3] = target: T3, human CD180 extracellular domain (ECD) HIS-tagged protein (Sino Biological, 11370-H08H) (human, UniProt Q99467 24-626)
T3 chain: T2 chain

B1: Ab-006 (antibody, V domains shown)
VH: EVQLVESGGGLVKPGGSLRLSCTASGFTFDDYDMTWVRQAPGKGLEWVSGINWNGGNTDYADSVKGRFTISRDNTKNSLYLQMNSLRAEDTALYYCARKGRDIVVVKGFYYHYYYMDVWGKGITVTVSS
VL: not shown
[1]
  Kd: 0.4 nM
[2]
  Kd: 12 nM
[3]
  Kd: 6.8 nM

B2: Ab-007 (antibody, V domains shown)
VH: EVQLVESGGGVVRPGGSLRLSCAASGFTFDDYAMSWVRQAPGKGLEWVSDINWNGGTTSYADSVKGRFTISRDNAKNSLFLQMNSLRAEDTALYYCARKGRDTVVVKGYYYFSYYMDVWGKGSTVTVSS
VL: not shown
[1]
  Kd: 0.05 nM
[2]
  Kd: 4.7 nM
[3]
  Kd: 3.4 nM
